Experimental data taken from patent publication US20110091994A1, “Methods for Screening Compounds for Treating and/or Preventing an Hepatitis C Virus Infection” (priority 2008, published 2011).

B1: TBXAS1 (protein, UniProt P24557 1-533, looked up)
Thromboxane-A synthase: MEALGFLKLEVNGPMVTVALSVALLALLKWYSTSAFSRLEKLGLRHPKPSPFIGNLTFFRQGFWESQMELRKLYGPLCGYYLGRRMFIVISEPDMIKQVLVENFSNFTNRMASGLEFKSVADSVLFLRDKRWEEVRGALMSAFSPEKLNEMVPLISQACDLLLAHLKRYAESGDAFDIQRCYCNYTTDVVASVAFGTPVDSWQAPEDPFVKHCKRFFEFCIPRPILVLLLSFPSIMVPLARILPNKNRDELNGFFNKLIRNVIALRDQQAAEERRRDFLQMVLDARHSASPMGVQDFDIVRDVFSSTGCKPNPSRQHQPSPMARPLTVDEIVGQAFIFLIAGYEIITNTLSFATYLLATNPDCQEKLLREVDVFKEKHMAPEFCSLEEGLPYLDMVIAETLRMYPPAFRFTREAAQDCEVLGQRIPAGAVLEMAVGALHHDPEHWPSPETFNPERFTAEARQQHRPFTYLPFGAGPRSCLGVRLGLLEVKLTLLHVLHKFRFQACPETQVPLQLESKSALGPKNGVYIKIVSR
B2: TMEM63B (protein, UniProt Q5T3F8 1-832, looked up)
Mechanosensitive cation …: MLPFLLATLGTTALNNSNPKDYCYSARIRSTVLQGLPFGGVPTVLALDFMCFLALLFLFSILRKVAWDYGRLALVTDADRLRRQERDRVEQEYVASAMHGDSHDRYERLTSVSSSVDFDQRDNGFCSWLTAIFRIKDDEIRDKCGGDAVHYLSFQRHIIGLLVVVGVLSVGIVLPVNFSGDLLENNAYSFGRTTIANLKSGNNLLWLHTSFAFLYLLLTVYSMRRHTSKMRYKEDDLVKRTLFINGISKYAESEKIKKHFEEAYPNCTVLEARPCYNVARLMFLDAERKKAERGKLYFTNLQSKENVPTMINPKPCGHLCCCVVRGCEQVEAIEYYTKLEQKLKEDYKREKEKVNEKPLGMAFVTFHNETITAIILKDFNVCKCQGCTCRGEPRPSSCSESLHISNWTVSYAPDPQNIYWEHLSIRGFIWWLRCLVINVVLFILLFFLTTPAIIITTMDKFNVTKPVEYLNNPIITQFFPTLLLWCFSALLPTIVYYSAFFEAHWTRSGENRTTMHKCYTFLIFMVLLLPSLGLSSLDLFFRWLFDKKFLAEAAIRFECVFLPDNGAFFVNYVIASAFIGNAMDLLRIPGLLMYMIRLCLARSAAERRNVKRHQAYEFQFGAAYAWMMCVFTVVMTYSITCPIIVPFGLMYMLLKHLVDRYNLYYAYLPAKLDKKIHSGAVNQVVAAPILCLFWLLFFSTMRTGFLAPTSMFTFVVLVITIVICLCHVCFGHFKYLSAHNYKIEHTETDTVDPRSNGRPPTAAAVPKSAKYIAQVLQDSEVDGDGDGAPGSSGDEPPSSSSQDEELLMPPDALTDTDFQSCEDSLIENEIHQ
B3: FBF1 (protein, UniProt Q8TES7 1-1133, looked up)
Fas-binding factor 1: MAPKTKKGCKVTLPEKPVKLASHTRDTTGVSQMFPSSKARTKSLLGDDVFSTMAGLEEADAEVSGISEADPQALLQAMKDLDGMDADILGLKKSNSAPSKKAAKDPGKGELPNHPKPAGGAIPTKKSLPSPSSSGHQNRRFSSEDLEDPLRGLLSYDEGGITKQPPVTQSKTASDKSPSTVRDQGPSIPLTPGDTPIRKKEELLFDDGDDIMATLGFGDSPKAEKRQIGDQEGPRPARSTLDELLGRGMATKLLARPGTGEHREFKLDKKYQRPQDSEDMWGDEDFTFGAYQPTVVSSEGRQSRRQSVSRFFADSGADPKGEPGSKQSPPMASSPIQPRKGGADWLGLKDEDLDLFPASPTREAHRESSVPVTPSVPPPASQHSTPAGLPPSRAKPPTEGAGSPAKASQASKLRASKEEKEDWLSHALSRKKSQGLAREQHAGTSEGLHLAGTAGHPPSGSQPLTSTQGLEHAAAGGSSGTTARERPCVRPGVSGSPVTQNHAASALPTGSPKRGTAPGDLSATEPATCFPSTQKPTEPSVPVQPLLPESLARSLLPSTEYQKQLLAAQVQLQCSPAELQAELLHSQARLAELEAQVRKLELERAQHELLLGSLQQQHQADLELIESAHRSRIKVLETSYQQREERLRRENEELSARYLSQCQEAEQARAELTAQHQRRLAAIAQEKDQEMERLRELQRASILDMRRDHEEQLQRLKLLKDREVDAATSATSHTRSLNSIIHQMEKFSSSLHELSSRVEASHLTTSQERELGIRQRDEQLRALQERLGQQQRDMEEERSRQQEVIGKMEARLNEQSRLLEQERWRVTAEQSKAESMQRALEEQRKVTAQQMAMERAELERAKSALLEEQKSVMLKCGEERRRLAAEWAEFSAQQKLSKERAEREAERALQVDTQREGTLISLAKQAELKIRASELRAEEKQLAAERAALEQERQELRLEKERINATALRVKLRAEEVESMSKVASEKYEEGERALREAQQVQAEQQARLQAVQQQQERLRKQEQHMHQEHLSLAQQRLQLDRARQDLPSSLVGLFPRAQGPAASSQSALMPPAPTTRWCSQPPTGLDPSPLHLHARLALLRHMAEQDRDFLENEQFFLETLKKGSYNLTSHSA
B4: UBE1C (protein, UniProt Q8TBC4 2-463, looked up)
NEDD8-activating enzyme E1 …: ADGEEPEKKRRRIEELLAEKMAVDGGCGDTGDWEGRWNHVKKFLERSGPFTHPDFEPSTESLQFLLDTCKVLVIGAGGLGCELLKNLALSGFRQIHVIDMDTIDVSNLNRQFLFRPKDIGRPKAEVAAEFLNDRVPNCNVVPHFNKIQDFNDTFYRQFHIIVCGLDSIIARRWINGMLISLLNYEDGVLDPSSIVPLIDGGTEGFKGNARVILPGMTACIECTLELYPPQVNFPMCTIASMPRLPEHCIEYVRMLQWPKEQPFGEGVPLDGDDPEHIQWIFQKSLERASQYNIRGVTYRLTQGVVKRIIPAVASTNAVIAAVCATEVFKIATSAYIPLNNYLVFNDVDGLYTYTFEAERKENCPACSQLPQNIQFSPSAKLQEVLDYLTNSASLQMKSPAITATLEGKNRTLYLQSVTSIEERTRPNLSKTLKELGLVDGQELAVADVTTPQTVLFKLHFTS
B5: PABPN1 (protein, UniProt Q86U42 2-306, looked up)
Polyadenylate-binding protein …: AAAAAAAAAAGAAGGRGSGPGRRRHLVPGAGGEAGEGAPGGAGDYGNGLESEELEPEELLLEPEPEPEPEEEPPRPRAPPGAPGPGPGSGAPGSQEEEEEPGLVEGDPGDGAIEDPELEAIKARVREMEEEAEKLKELQNEVEKQMNMSPPPGNAGPVIMSIEEKMEADARSIYVGNVDYGATAEELEAHFHGCGSVNRVTILCDKFSGHPKGFAYIEFSDKESVRTSLALDESLFRGRQIKVIPKRTNRPGISTTDRGFPRARYRARTTNYNSSRSRFYSGFNSRPRGRVYRGRARATSWYSPY
B6: SYNPO2 (protein, UniProt Q9UMS6 1-1093, looked up)
Synaptopodin-2: MGTGDFICISMTGGAPWGFRLQGGKEQKQPLQVAKIRNQSKASGSGLCEGDEVVSINGNPCADLTYPEVIKLMESITDSLQMLIKRPSSGISEALISENENKNLEHLTHGGYVESTTLQIRPATKTQCTEFFLAPVKTEVPLAENQRSGPDCAGSLKEETGPSYQRAPQMPDSQRGRVAEELILREKVEAVQPGPVVELQLSLSQERHKGASGPLVALPGAEKSKSPDPDPNLSHDRIVHINSIPTNEKADPFLRSSKIIQISSGRELRVIQESEAGDAGLPRVEVILDCSDRQKTEGCRLQAGKECVDSPVEGGQSEAPPSLVSFAVSSEGTEQGEDPRSEKDHSRPHKHRARHARLRRSESLSEKQVKEAKSKCKSIALLLTDAPNPNSKGVLMFKKRRRRARKYTLVSYGTGELEREADEEEEGDKEDTCEVAFLGASESEVDEELLSDVDDNTQVVNFDWDSGLVDIEKKLNRGDKMEMLPDTTGKGALMFAKRRERMDQITAQKEEDKVGGTPSREQDAAQTDGLRTTTSYQRKEEESVRTQSSVSKSYIEVSHGLGHVPQQNGFSGTSETANIQRMVPMNRTAKPFPGSVNQPATPFSPTRNMTSPIADFPAPPPYSAVTPPPDAFSRGVSSPIAGPAQPPPWPQPAPWSQPAFYDSSERIASRDERISVPAKRTGILQEAKRRSTTKPMFTFKEPKVSPNPELLSLLQNSEGKRGTGAGGDSGPEEDYLSLGAEACNFMQSSSAKQKTPPPVAPKPAVKSSSSQPVTPVSPVWSPGVAPTQPPAFPTSNPSKGTVVSSIKIAQPSYPPARPASTLNVAGPFKGPQAAVASQNYTPKPTVSTPTVNAVQPGAVGPSNELPGMSGRGAQLFAKRQSRMEKYVVDSDTVQAHAARAQSPTPSLPASWKYSSNVRAPPPVAYNPIHSPSYPLAALKSQPSAAQPSKMGKKKGKKPLNALDVMKHQPYQLNASLFTFQPPDAKDGLPQKSSVKVNSALAMKQALPPRPVNAASPTNVQASSVYSVPAYTSPPSFFAEASSPVSASPVPVGIPTSPKQESASSSYFVAPRPKFSAKKSGVTIQVWKPSVVEE
B7: NUCB1 (protein, UniProt Q02818 27-461, looked up)
Nucleobindin-1: VPLERGAPNKEETPATESPDTGLYYHRYLQEVIDVLETDGHFREKLQAANAEDIKSGKLSRELDFVSHHVRTKLDELKRQEVSRLRMLLKAKMDAEQDPNVQVDHLNLLKQFEHLDPQNQHTFEARDLELLIQTATRDLAQYDAAHHEEFKRYEMLKEHERRRYLESLGEEQRKEAERKLEEQQRRHREHPKVNVPGSQAQLKEVWEELDGLDPNRFNPKTFFILHDINSDGVLDEQELEALFTKELEKVYDPKNEEDDMREMEEERLRMREHVMKNVDTNQDRLVTLEEFLASTQRKEFGDTGEGWETVEMHPAYTEEELRRFEEELAAREAELNAKAQRLSQETEALGRSQGRLEAQKRELQQAVLHMEQRKQQQQQQQGHKAPAAHPEGQLKFHPDTDDVPVPAPAGDQKEVDTSEKKLLERLPEVEVPQHL
B8: PRRC1 (protein, UniProt Q96M27 1-445, looked up)
Protein PRRC1: MMEESGIETTPPGTPPPNPAGLAATAMSSTPVPLAATSSFSSPNVSSMESFPPLAYSTPQPPLPPVRPSAPLPFVPPPAVPSVPPLVTSMPPPVSPSTAAAFGNPPVSHFPPSTSAPNTLLPAPPSGPPISGFSVGSTYDITRGHAGRAPQTPLMPSFSAPSGTGLLPTPITQQASLTSLAQGTGTTSAITFPEEQEDPRITRGQDEASAGGIWGFIKGVAGNPMVKSVLDKTKHSVESMITTLDPGMAPYIKSGGELDIVVTSNKEVKVAAVRDAFQEVFGLAVVVGEAGQSNIAPQPVGYAAGLKGAQERIDSLRRTGVIHEKQTAVSVENFIAELLPDKWFDIGCLVVEDPVHGIHLETFTQATPVPLEFVQQAQSLTPQDYNLRWSGLLVTVGEVLEKSLLNVSRTDWHMAFTGMSRRQMIYSAARAIAGMYKQRLPPRTV

Tested on: HCV ORFs (Gal4-DB fusions)
Assay type: binding, HCV genotype 1b, isolate con1
Settings: human protein listed by gene symbol; the value names the HCV protein it interacts with
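Note: yeast two-hybrid screens using HCV genotype 1b proteins fused to Gal4-DB as baits against prey cDNA libraries from human spleen and foetal brain, IMAP1 via transformation and IMAP2 via mating.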

Molecule | Interaction with viral protein
B1 | NS3
B2 | NS3
B3 | NS3
B4 | NS3
B5 | CORE
B6 | NS3
B7 | NS3 and NS5A
B8 | NS3

Biological target: T1, HCV ORFs (Gal4-DB fusions) (Hepatitis C virus genotype 1b, UniProt Q9WMX2)
T1 construct: expressed in transfected cells; host or cells: Saccharomyces cerevisiae MAV203 (IMAP1) / AH109 (IMAP2)
Assay type: binding, HCV genotype 1b, isolate con1
Settings: HCV protein CORE as bait; human protein as prey

Molecule | IMAP Y2H IMAP2 (number of IST)
B5 | 1

Same assay, conditions: HCV protein NS3 as bait; human protein as prey

Molecule | IMAP Y2H IMAP2 (number of IST)
B1 | 1
B2 | 1
B3 | 3
B4 | 1
B6 | 1
B8 | 1

Same assay, conditions: HCV protein NS5A as bait; human protein as prey

Molecule | IMAP Y2H IMAP2 (number of IST)
B7 | 2
